Measurements published in article doi:10.1101/2021.10.25.465661 (bioRxiv, 2021).

Biological target: the molecule itself
Experiment: SEC-MALS

B1: Qin eTud3 (Qin 959-1195) (domain or fragment, Drosophila melanogaster, UniProt Q9VE55 959-1195, looked up)
chain: VRPVELSPYRMPDNTERNKRTTVNILYVRKPDEFYVTLPHFQKAINNLQKSVQKAAAAMYQNMLPRTDWQVGDMCYARVQANCDSQALWYRGVVTGVIPPGITCPIVRYQVHLRDLGELIDDVHSSSLANIDEADMRISSSAKRCHLHGIRPIGDEWSKDAIDFFMDQLKAYNEIHVTGRGRTENSLSVILWGSLSILTGPFSPATIKYVNINKALLMAGMAEKDHNSDSEDDQQSM
- stoichiometry N: 2
